Experimental data reported in publication doi:10.1101/2025.03.04.641353.
Where two headings read alike, the source gives them in different places.

B1: Ni_apt (ssDNA)
DNA: AAAAAAAAAAGCAGCACAGAGGTCAGATGGTATCGAGCGCAGGGCCGCCTTTGTT

How the values were obtained:
[1] = target: T1, Bovine serum albumin (BSA) (Bos taurus, UniProt P02769 25-607); test: SYBR Green I fluorescence titration
[2] = target: T1, Bovine serum albumin (BSA); test: SYBR Green I fluorescence titration; remark: listed apart in the source

T1 sequence (P02769 25-607): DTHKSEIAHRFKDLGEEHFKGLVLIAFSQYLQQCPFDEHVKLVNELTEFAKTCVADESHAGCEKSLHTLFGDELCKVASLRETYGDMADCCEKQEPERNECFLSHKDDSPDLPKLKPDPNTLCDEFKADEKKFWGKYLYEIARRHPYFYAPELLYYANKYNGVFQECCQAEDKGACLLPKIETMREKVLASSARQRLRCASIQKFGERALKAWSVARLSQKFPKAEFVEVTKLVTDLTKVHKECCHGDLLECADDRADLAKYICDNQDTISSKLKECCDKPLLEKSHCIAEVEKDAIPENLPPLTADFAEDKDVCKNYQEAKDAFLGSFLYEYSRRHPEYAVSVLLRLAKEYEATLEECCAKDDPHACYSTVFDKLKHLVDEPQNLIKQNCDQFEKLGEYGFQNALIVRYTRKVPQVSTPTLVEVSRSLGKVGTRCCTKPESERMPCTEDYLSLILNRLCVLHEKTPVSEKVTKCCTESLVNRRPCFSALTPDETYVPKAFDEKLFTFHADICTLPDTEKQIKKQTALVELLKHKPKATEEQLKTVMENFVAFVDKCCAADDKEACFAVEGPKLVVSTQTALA

Binder	Kd [1]	Kd [2]
AGCAGCACAGAGGTCAGATGGTATCGAGCGCAGGGCCGCCTTTGTT (ssDNA) [R_apt]	20 nM	–
B1	–	120 nM
